Source: paper doi:10.1101/2022.08.09.503292
Read-outs that look alike come from different tables or passages of the source.

What was measured:
[1] = biological target: mono-nucleosome with extra-nucleosomal linker DNA (185-bp '601'), Oregon green 488 on H2B D51C (NCP^185) (human) (UniProt Q6FI13); assay: other fluorescence titration
BARD1 124-270 = BARD1 124-270 (UniProt Q99728 124-270); assay: NMR
BARD1 141-216 [2] = biological target: T1, BARD1 141-216 (UniProt Q99728 141-216); assay: NMR
BARD1 141-216 [3] = biological target: T1, BARD1 141-216; assay: NMR; remark: listed apart in the source

T1 sequence (Q99728 141-216): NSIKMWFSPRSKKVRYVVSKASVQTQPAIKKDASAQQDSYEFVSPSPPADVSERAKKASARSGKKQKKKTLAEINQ
BARD1 124-270, sequence (Q99728 124-270): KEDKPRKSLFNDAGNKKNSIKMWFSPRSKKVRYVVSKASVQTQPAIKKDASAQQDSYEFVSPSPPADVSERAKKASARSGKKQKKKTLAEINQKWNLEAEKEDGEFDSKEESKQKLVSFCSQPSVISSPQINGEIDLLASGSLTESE

BRCA1^RING/BARD1^216 heterodimer (from UniProt P38398 1-112; Q99728 1-216) (complex)
fold increase in binding affinity with linker DNA (NCP^185 against NCP^147) [1]: < 2 fold

B1: 36-mer dsDNA (dsDNA)
DNA 1: CCTACGACGCCTGGGGTACCAGCGCAATTGTGTACC
DNA 2: GGTACACAATTGCGCTGGTACCCCAGGCGTCGTAGG
binding result (BARD1 124-270): binds
binding result (BARD1 141-216 [2]): binds

B2: 36-mer bubble-DNA (mixed)
DNA 1: CCTACGACGCCTGGCTCTTTCCCGCAATTGTGTACC
DNA 2: GGTACACAATTGCGCTGGTACCCCAGGCGTCGTAGG
binding result (BARD1 141-216 [3]): binds
